Test results from article PMC7615710.
pKd: −log10 of the molar value.

Columns and labels:
[1] = target: PP1α (Homo sapiens) (UniProt P62136); conditions: cited from earlier work
[2] = target: Bin1 SH3 domain (513-593) (human) (UniProt O00499); assay: ITC; 450 or 300 uM NS5A PRR peptide (syringe) titrated to 30 uM ASPP CTD or SH3 domain (cell), 12 °C, 25 mM HEPES pH 7.5, 150 mM NaCl, 500 uM TCEP; 25 steps of 10 ul; AB hetero association model (SEDPHAT)
Bin1 SH3 domain (513-593) (human), sequence (O00499 513-593): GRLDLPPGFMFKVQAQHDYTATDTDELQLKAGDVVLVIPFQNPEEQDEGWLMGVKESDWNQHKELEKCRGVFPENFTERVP

PP1α (Homo sapiens), sequence (P62136 2-330): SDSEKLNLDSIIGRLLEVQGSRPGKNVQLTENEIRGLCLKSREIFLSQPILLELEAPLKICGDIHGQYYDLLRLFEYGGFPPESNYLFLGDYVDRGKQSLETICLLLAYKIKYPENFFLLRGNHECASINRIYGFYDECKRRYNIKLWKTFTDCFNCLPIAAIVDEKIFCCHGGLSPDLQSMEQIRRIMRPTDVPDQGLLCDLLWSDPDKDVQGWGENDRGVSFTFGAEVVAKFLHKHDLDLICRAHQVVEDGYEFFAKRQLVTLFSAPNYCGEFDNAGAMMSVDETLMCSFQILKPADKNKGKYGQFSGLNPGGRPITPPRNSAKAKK
ASPP2 SH3, sequence (Q13625 1054-1122): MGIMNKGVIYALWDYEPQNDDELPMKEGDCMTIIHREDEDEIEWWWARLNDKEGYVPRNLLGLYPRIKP

Row | Substance | pKd [1] | pKd [2]
1 | ASPP2 SH3 (from UniProt Q13625) | 6.85 | 
2 | HCV [1a.1] NS5A PRR peptide (peptide; other documents disagree on this pair) |  | 7.52
